These results are taken from patent publication US20240369568A1.

What all share (assay): SPR, release and stability method, specific binding activity
A general note: In SPR one partner is held on a chip, and binding of the other changes the refractive index at the surface.

The target of one test is FcγRIIIa (UniProt P08637).
The next test has as its target FcRn (UniProt P55899).
Test [1] concerns the target BCMA (the 'Antigen' of the SPR antigen binding assay) (human) (UniProt Q02223).

Sequence of BCMA (the 'Antigen' of the SPR antigen binding assay) (human) (Q02223 1-54 limits assumed): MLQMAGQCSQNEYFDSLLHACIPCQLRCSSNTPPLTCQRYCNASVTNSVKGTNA
Sequence of FcRn (P55899 24-297 limits assumed, chain 1 of 2): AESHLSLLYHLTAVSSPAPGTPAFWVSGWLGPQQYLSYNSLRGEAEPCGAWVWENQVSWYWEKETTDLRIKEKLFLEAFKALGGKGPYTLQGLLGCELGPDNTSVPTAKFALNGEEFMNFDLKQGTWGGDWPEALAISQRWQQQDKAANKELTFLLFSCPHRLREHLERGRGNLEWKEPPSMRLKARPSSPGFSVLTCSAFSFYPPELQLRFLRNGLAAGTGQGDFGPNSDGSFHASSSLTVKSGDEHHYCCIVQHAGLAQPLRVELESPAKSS
Sequence of FcRn (P61769 21-119 limits assumed, chain 2 of 2, further chain): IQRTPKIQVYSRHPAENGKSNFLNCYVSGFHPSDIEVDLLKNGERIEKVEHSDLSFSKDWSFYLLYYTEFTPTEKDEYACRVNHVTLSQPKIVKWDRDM
Sequence of FcγRIIIa (P08637 17-208 limits assumed): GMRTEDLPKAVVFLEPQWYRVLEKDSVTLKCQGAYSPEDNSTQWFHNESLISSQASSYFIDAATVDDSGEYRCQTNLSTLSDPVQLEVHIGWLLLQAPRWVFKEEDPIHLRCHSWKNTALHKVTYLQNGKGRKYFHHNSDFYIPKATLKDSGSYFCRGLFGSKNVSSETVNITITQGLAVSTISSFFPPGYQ

Consider Control (sample of Table 11), for which the FcyRIIIa Binding (%) (specific binding activity) with FcγRIIIa came to 97%. In addition, the FcRNn Binding (%) (specific binding activity) with FcRn was 101%. This substance also registered an Antigen Binding (%) (specific binding activity) in test [1] of 96%.
